Reference: the supplement of paper PMC7125110
± gives the standard error. Fewer inactive variants are shown than the library holds.

B1: glmS ribozyme (parent)
chain: AUAAAAGCGCCAGAACUACAGAAAUGUAGUUGACGAGGAGGAGGUUUAUCGAAUUUUCGGCGGAUGCCUCCAAA

How the values were obtained:
Conditions in all cases: with glucosamine-6-phosphate
[1] = variants of: B1; assay: self-cleavage kobs at 160 uM GlcN6P; higher = faster cleavage; RNA array
How it was run: (§1)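 Glucosamine-6-phosphate in HEPES/KCl/Mg(OAc)2 buffer, at 40 μM to 10 mM, was flowed over barcoded ribozyme variants transcribed in situ by E. coli RNA polymerase on sequenced MiSeq chips. Tracking was through a hybridised Cy3 probe at 37 °C. kobs, kcat and KM came from exponential decay fits and weighted Michaelis–Menten fits of normalised per-tile medians.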

[2] = variants of: B1; assay: self-cleavage kobs at 2500 uM GlcN6P; higher = faster cleavage; RNA array
How it was run: as §1

[3] = variants of: B1; assay: self-cleavage kobs at 10000 uM GlcN6P; higher = faster cleavage; RNA array
How it was run: as §1

[4] = variants of: B1; assay: self-cleavage kobs at 640 uM GlcN6P; higher = faster cleavage; RNA array
How it was run: as §1

Variant | self-cleavage kobs at 160 uM GlcN6P [1] [s⁻¹] | self-cleavage kobs at 2500 uM GlcN6P [2] [s⁻¹] | self-cleavage kobs at 10000 uM GlcN6P [3] [s⁻¹] | self-cleavage kobs at 640 uM GlcN6P [4] [s⁻¹]
G13A U46G A48G G59A | < 1e-05 | < 1e-05 | < 1e-05 | 
G40U U46C U55G |  |  |  | 0.000194 ± 6.6e-05
A15G G29U C34U | < 1e-05 |  |  | 
G29U U47A A64U |  |  |  | < 1e-05
G7A C11G G40U |  |  |  | < 1e-05
G29A A36U U55G | < 1e-05 |  |  | < 1e-05
C58U A64C C71A |  |  |  | < 1e-05
A33U G35C G63U |  | < 1e-05 |  | < 1e-05
U2C G32U G44A U47G |  | < 1e-05 |  | < 1e-05
A33C C34G G40U A48U C61A | < 1e-05 | < 1e-05 |  | < 1e-05
G29A G43A U56A |  |  |  | < 1e-05
G37C U45G G63U |  | < 1e-05 |  | < 1e-05
C8U G41U C58U C68A C70G | < 1e-05 |  |  | 
C8U C50G G51U U56C |  |  |  | < 1e-05
A14G U54C G60C A64G C70G | < 1e-05 |  |  | < 1e-05
A15G G38U |  |  |  | < 1e-05
G9A A12G A14G G35U | < 1e-05 | < 1e-05 |  | 
A6C G35C U46A C61A | < 1e-05 | < 1e-05 |  | < 1e-05
C8U A15U | < 1e-05 | < 1e-05 |  | < 1e-05
G29U U49C C50G C70A | 5.5e-05 ± 2.2e-05 |  |  | 0.000125 ± 5.5e-05
C8U U56A | < 1e-05 | < 1e-05 |  | < 1e-05
C8G G35A | < 1e-05 |  | < 1e-05 | 
C11A A36U U56A C68G C70A | 6.51e-05 ± 2.8e-05 |  | 4.16e-05 ± 1.8e-05 | 0.000823 ± 0.0003
G32U G35A A42C | < 1e-05 | < 1e-05 |  | < 1e-05
G7C G32C G41U U47G U56C | < 1e-05 | < 1e-05 |  | < 1e-05
A6U G9C C16G C71U |  |  |  | < 1e-05
C11A G63A |  | < 1e-05 | < 1e-05 | < 1e-05
U31A U47C G51A G66A |  | < 1e-05 |  | < 1e-05
A39G G40U C50U |  | < 1e-05 | < 1e-05 | < 1e-05
